This is an account of results in patent US20230391856A1 (ICAHN SCHOOL OF MEDICINE AT MOUNT SINAI, published 2023).

Assay [1] has as its target T1, SARS-CoV-2 spike receptor binding domain (RBD) (SARS-CoV-2, UniProt P0DTC2 319-541).
T1 construct: also called SARS-CoV RBD
The assay can be described thus: RBD/ACE2 competition; RBD binding to ACE2 on HEK-293 cells.

Assay [2] addresses T1, SARS-CoV-2 spike receptor binding …. The assay is described as above. This is another data set of the same source.
Assay [3] deals with T2, SARS-CoV-2 spike protein (full length, wild type) (SARS-CoV-2, UniProt P0DTC2 14-1273). The assay can be described thus: cell-based or functional assay.
Assay [4] concerns the target T2, SARS-CoV-2 spike protein (full length, …). The assay can be described thus: cell-based or functional assay. The source holds these as a separate data set.

B1: SARS2-10D6_f3 (antibody, V domains shown)
VH: EVQLVETGGGLIQPGGSLRLSCAASGITVSSNYMNWVRQAPGKGLEWVSVIYSGGSTYYADSVKGRFTISRDNSKNTLYLQMNSLRAEDTAVYYCARDLELAGAFDIWGQGTMVTVSL
VL: DIQLTQSPSFLSASVGDRVTITCRASQGISSYLAWYQQKPGKAPKVLIYAASTLQSGVPSRFSGSGSGTEFTLTISSLQPEDFATYYCQQLNSYPPSTFGQGTKLEIK
notes: also called antibody number 11; family A
With B1, in assay [1], the “ACE2 Inhibition (%)” value came out at 81%. Also, the “ACE2 binding [% inhibition]” value in assay [2] was 81%. Further, the “EC50 (pM)” value in assay [3] is 1020 pM.

B2: SARS2-11D5_f3 (antibody, V domains shown)
VH: EVQLVETGGGLIQPGGSLRLSCAASGITVSSNYMSWVRQAPGKGLEWVSVIYSGGSTYYADSVKGRFTISRDNSKNTLYLQMNSLRAEDTAVYYCARDLAVAGAFDIWGQGTMVTVSL
VL: DIQLTQSPSFLSASVGDRVTITCRASQGISSYLAWYQQKPGKAPKVLIYAASTLQSGVPSRFSGSGSGTEFTLTISSLQPEDFATYYCQQLNSYPPSTFGQGTKLEIK
notes: also called antibody number 12
On to B2, for which the “ACE2 Inhibition (%)” value in assay [1] amounted to 66%. Also, the “ACE2 binding [% inhibition]” value in assay [2] stood at 66%. Further, in assay [3], the “EC50 (pM)” value is 440 pM.

B3: SARS2-19C4_f3 (antibody, V domains shown)
VH: EVQLVETGGGLIQPGGSLRLSCAASGITVSSNYMNWVRQAPGKGLEWVSVIYSGGSTFYADSVKGRFTISRDNSKNTLYLQMNSLRAEDTAVYYCARDLEVAGGFDIWGQGTMVTVSL
VL: DIQLTQSPSFLSASVGDRVTITCRASQGISSYLAWYQQKPGKAPKVLIYAASTLQSGVPSRFSGSGSGTKFTLTISSLQPEDFATYYCQQLNSFPPSTFGQGTKLEIK
notes: also called antibody number 20; family A
Regarding B3, the “ACE2 Inhibition (%)” value in assay [1] was 89%. For the same molecule, the “ACE2 binding [% inhibition]” value in assay [2] was 89%. Also, the “EC50 (pM)” value in assay [3] turned out to be 492 pM.

B4: SARS2-1G9_f3 (antibody, V domains shown)
VH: QVQLVQSGAEVKKPGASVKVSCKASGYTFTSYDIIWVRQATGQGLEWMGWMSPNSGNTGYAQKFQGRVTMTRNTSISTAYMELSSLRSEDTAVYYCARFGYGSGALDYYYYGLDVWGQGTTVTVSS
VL: not shown
notes: also called antibody number 5
On to B4, for which the “ACE2 Inhibition (%)” value in assay [1] turned out to be 96%. Also, the “ACE2 binding [% inhibition]” value in assay [2] came out at 96%. For the same molecule, the “EC50 (pM)” value in assay [3] was found to be 145 pM.

B5: SARS2-16C12_f3 (antibody, V domains shown)
VH: QVQLVQSGAEVKKPGASVKVSCKASGYTFTSYDIIWVRQATGQGLEWMGWMSPNSGNTGYAQKFQGRVTMTRNTSISTAYMELSSLRSEDTAVYYCARFGYGSGALDYYYYGLDVWGQGTTVTVSS
VL: not shown
notes: also called antibody number 16; family B
B5: the “ACE2 Inhibition (%)” value in assay [1] worked out at 87%. The “ACE2 binding [% inhibition]” value in assay [2] was 87%. Moreover, the “EC50 (pM)” value in assay [3] came out at 59 pM.

B6: SARS2-5H12_f3 (antibody, V domains shown)
VH: QVQLVQSGAEVKKPGTSVKVSCKTSGYTFPSYDIIWVRQATGQGLEWMGWMSPKNGNTGFAQRFQGRVTMTRNTSISTAYMELSSLRSEDTAVYYCARFGYGSGALGYYYYGLDVWGQGTTVTVSS
VL: EIVLTQSPGTLSLSPGERATLSCRASQSVRSSHLAWYRQKPGQAPRLLIYGASSRATGIPDRFSGRGSGTDFTLTISRLEPEDFAVYYCQQYNFSPITFGQGTRLEIK
notes: also called antibody number 7
For the molecule B6, the “ACE2 Inhibition (%)” value in assay [1] was determined as 100%. The “ACE2 binding [% inhibition]” value in assay [2] stood at 100%. Further, the “EC50 (pM)” value in assay [3] was found to be 377 pM.

B7: SARS2-7C10_f3 (antibody, V domains shown)
VH: QVQLVQSGAEVKKPGASVKVSCKASGYTFTSYDITWVRQATGQGLEWMGWMSPNSGNTGYAQKFQGRVTMTRNTSISTAYMELRSLRSEDTAVYYCARFGYGSGALDYYYYGLDVWGQGTTVTVSS
VL: EIVLTQSPGTLSLSPGERATLSCRASQSVRSSHLAWSQQKPGQAPRLLIYGASSRATGIPDRFSGSGSGTDFTLTISRLEPEDFAVYYCQQFGSSPITFGQGTRLEIK
notes: also called antibody number 8
Consider B7, for which the “ACE2 Inhibition (%)” value in assay [1] turned out to be 85%. Further, in assay [2], the “ACE2 binding [% inhibition]” value was found to be 85%. For the same molecule, the “EC50 (pM)” value in assay [3] was found to be 152 pM.

B8: 11G2_f3 (antibody, V domains shown)
VH: QVQLVQSGAEVKKPGASVKVSCKASGYTFTSYDITWVRQATGQGLEWMGWMSPNSGNTGYAQKFQGRVSMTRNTSISTAYMELSSLRSEDTAVYYCARFGYGSGALDYYYYGLDVWGQGTTVTVSS
VL: EIVLTQSPGTLSLSPGERATLSCRASQSVRNSHLAWYQQKPGQAPRLLIYGASSRATGIPDRFSGSGSGTDFTLTISRLEPEDFAVYYCQQFGSSPITFGQGTRLEIK
notes: also called SARS2-11G2_S; antibody number 13
For the molecule B8, in assay [1], the “ACE2 Inhibition (%)” value amounted to 90%. Moreover, in assay [2], the “ACE2 binding [% inhibition]” value was found to be 90%. Besides, the “EC50 (pM)” value in assay [3] turned out to be 74 pM. The “Inhibition: EC50 [pM]” value in assay [4] was 109 pM.

B9: SARS2-16C5_f3 (antibody, V domains shown)
VH: QVQLVQSGAEVKKPGASVKVSCKASGYTFTSYDIIWVRQATGQGLEWMGWMSPNSGNTGYAQKFQGRVTMTRNTSIGTAYMELSSLRSEDTAVYFCARFGYGSGALDYYYYGLDVWGQGTTVTVSS
VL: EIVLTQSPGTLSLSPGERATLSCRASQSVRSSHLAWYQQKPGQAPRLLIYGASSRATGIPDRFSGSGSGTDFTLTISRLEPEDFAVYYCQQYNNSPITFGQGTRLEIK
notes: also called antibody number 15; family B
On to B9, for which, in assay [1], the “ACE2 Inhibition (%)” value came to 94%. The “ACE2 binding [% inhibition]” value in assay [2] came to 94%. The “EC50 (pM)” value in assay [3] came out at 107 pM.

B10: SARS2-1C12_f3 (antibody, V domains shown)
VH: QVQLVQSGAEVKKPGASVKVSCKASGYTFTSYDITWVRQATGQGLEWMGWMSPNSGNTGYTQKFQGRVTMTRNTSISTAYMELSSLRSEDTAVYYCARFGYGSGALDYYYYGLDVWGQGTTVTVSS
VL: EIVLTQSPGTLSLSPGERATLSCRASQSVRSSHLAWYQQKPGQAPRLLIYGASSRATGIPDRFSGSGSGTDFTLTISRLEPEDFAVYYCQQYNNSPITFGQGTRLEIK
notes: also called antibody number 1
Consider B10, for which, in assay [1], the “ACE2 Inhibition (%)” value turned out to be 88%. In addition, the “ACE2 binding [% inhibition]” value in assay [2] was found to be 88%. Further, in assay [3], the “EC50 (pM)” value amounted to 75 pM.

B11: SARS2-5D7_f3 (antibody, V domains shown)
VH: QVQLVQSGAEVKKPGTSVKVSCKTSGYTFTSYDIIWVRQATGQGLEWMGWMSPKNGNTGYAQRFQGRVTMTRNTSISTAYMELSSLRSEDTAVYYCARFGYGSGALDYYYYGLDVWGQGTTVTVSS
VL: EIVLTQSPGTLSLSPGERATLSCRASQSVRSSHLAWYRQKPGQAPRLLIYGASSRATGIPDRFSGRGSGTDFTLTISRLEPEDFAVYYCQQYNISPITFGQGTRLEIK
notes: also called antibody number 6
As for B11, the “ACE2 Inhibition (%)” value in assay [1] came to 97%. Further, the “ACE2 binding [% inhibition]” value in assay [2] came to 97%. Besides, in assay [3], the “EC50 (pM)” value is 284 pM.

B12: SARS2-17A8_f3 (antibody, V domains shown)
VH: QVQLVQSGAEVKKPGASVKVSCKASGYTFTSYDIIWVRQATGQGLEWMGWMSPNSGNTGYAQKFQGRVTMTKNTSISTAYMELSSLRSEDTAVYYCARFGYGSGALDYYYYGLDVWGQGTTVTVSS
VL: not shown
notes: also called antibody number 17
Regarding B12, the “ACE2 Inhibition (%)” value in assay [1] was 98%. Besides, the “ACE2 binding [% inhibition]” value in assay [2] worked out at 98%. In addition, the “EC50 (pM)” value in assay [3] is 59 pM.

B13: SARS2-18E7_f3 (antibody, V domains shown)
VH: QVQLVQSGAEVKKPGASVTVSCKASGYTFTSYDIIWVRQATGQGLEWMGWMSPNSGNTGYAQRFQGRVTMTRNTSISTAYMELSSLRSEDTAVYYCARFGYGSGALDYYYYGLDVWGQGTTVTVSS
VL: not shown
notes: also called antibody number 19
On to B13, for which the “ACE2 Inhibition (%)” value in assay [1] was determined as 82%. In addition, the “ACE2 binding [% inhibition]” value in assay [2] came out at 82%. Also, in assay [3], the “EC50 (pM)” value came to 62 pM.

B14: SARS2-1D10_f3 (antibody, V domains shown)
VH: QVQLVQSGAEVKKPGASVKVSCKASGYTFTSYDIIWVRQASGQGLEWMGWMSPNSGNTGYAQKFQGRVTMTRNTSINTAYMELSSLRSEDTAVYYCARFGYGSGALDYYYYGLDVWGQGTTVTVSS
VL: not shown
notes: also called antibody number 3
Turning to B14, the “ACE2 Inhibition (%)” value in assay [1] was determined as 95%. Besides, the “ACE2 binding [% inhibition]” value in assay [2] was 95%. Moreover, the “EC50 (pM)” value in assay [3] turned out to be 47 pM.

B15: SARS2-8H4_f3 (antibody, V domains shown)
VH: QVQLVQSGAEVKKPGASVKVSCKASGYTFTSYDITWVRQATGQGLEWMGWMSPNSGNTGYAQKFQGRVTMTRNTSISTAYMELSSLRSEDTAVYYCARFGYGSGALDYYYYGLDVWGQGTTVTVSS
VL: EIVLTQSPGTLSLSPGERATLSCRASQSVRSSHLAWYQQKPGQAPRLLIYGASSRATGIPDRFSGSGSGTDFTLTISRLEPEDFAVYYCQQFGSSPITFGQGTRLEIK
notes: also called antibody number 9
B15: the “ACE2 Inhibition (%)” value in assay [1] came out at 93%. Also, the “ACE2 binding [% inhibition]” value in assay [2] was determined as 93%. The “EC50 (pM)” value in assay [3] was 100 pM.

B16: SARS2-9C6_f3 (antibody, V domains shown)
VH: QVQLVQSGAEVKKPGASVKVSCKASGYTFTSYDITWVRQATGQGLEWMGWMSPKSGNTGYAQKFQGRVTMTRNTSISTAYMELSSLRSEDTAVYYCARFGYGSGALDYYYYGLDVWGQGTTVTVSS
VL: EIVLTQSPGTLSLSPGERATLSCRASQSVRSSHLAWYRQKPGQAPRLLIYGASSRATGIPDRFSGRGSGTDFTLTISRLEPEDFAVYYCQQYNSSPITFGQGTRLEIK
notes: also called antibody number 10
For the molecule B16, the “ACE2 Inhibition (%)” value in assay [1] was 85%. Moreover, the “ACE2 binding [% inhibition]” value in assay [2] was 85%. For the same molecule, the “EC50 (pM)” value in assay [3] is 105 pM.

B17: SARS2-1E2_f3 (antibody, V domains shown)
VH: QVQLVQSGAEVKKPGASVKVSCKASGYTFTSYDITWVRQATGQGLEWMGWMSPNSGNTGYAQKFQGRVTMTRNTSISTAYMELSSLRSEDTAVYYCARFGYGSGALDYYYYGLDVWGQGTTVTVSS
VL: EIVLTQSPGTLSLSPGERATLSCRASQSVRSSHFAWYQQKPGQAPRLLIYGASSRATGIPDRFSGSGSGTDFTLTISRLEPEDFAVCYCQQYGSSPITFGQGTRLEIK
notes: also called antibody number 4
Regarding B17, the “ACE2 Inhibition (%)” value in assay [1] came to 86%. Also, the “ACE2 binding [% inhibition]” value in assay [2] is 86%. Further, in assay [3], the “EC50 (pM)” value stood at 218 pM.

B18: SARS2-17F2_f3 (antibody, V domains shown)
VH: QVQLVQSGAEVKRPGASVKVSCKASGYTFTSYDITWVRQATGQGLEWMGWMSPDSGNTGYAQRFQGRVTMTRNTSISTAYMELSSLRSEDTAVYYCARFGYGSGALDYYYYGLDVWGQGTTVTVSS
VL: EIVLTQSPGTLSLSPGERATLSCRASQSVRSSHLAWYQQKPGQAPRLLIYGASSRATGIPDRFSGSGSGTDFTLTISRLEPEDFAVYYCQQYNSSPITFGQGTRLEIK
notes: also called antibody number 18
With B18, the “ACE2 Inhibition (%)” value in assay [1] is 65%. For the same molecule, the “ACE2 binding [% inhibition]” value in assay [2] was 65%. Also, the “EC50 (pM)” value in assay [3] stood at 151 pM.
